Where a chain is given by its changes, count along the chain named. Names may count otherwise.
B1: aquaporin-2 (AQP2): T125M (protein)
parent chain: MWELRSIAFSRAVFAEFLATLLFVFFGLGSALNWPQALPSVLQIAMAFGLGIGTLVQALGHISGAHINPAVTVACLVGCHVSVLRAAFYVAAQLLGAVAGAALLHEITPADIRGDLAVNALSNSTTAGQAVTVELFLTLQLVLCIFASTDERRGENPGTPALSIGFSVALGHLLGIHYTGCSMNPARSLAPAVVTGKFDDHWVFWIGPLVGAILGSLLYNYVLFPPAKSLSERLAVLKGLEPDTDWEEREVRRRQSVELHSPQSLPRGTKA
B2: human aquaporin-2 (AQP2), truncated after residue 242 (domain or fragment, UniProt P41181 1-242, looked up)
chain: MWELRSIAFSRAVFAEFLATLLFVFFGLGSALNWPQALPSVLQIAMAFGLGIGTLVQALGHISGAHINPAVTVACLVGCHVSVLRAAFYVAAQLLGAVAGAALLHEITPADIRGDLAVNALSNSTTAGQAVTVELFLTLQLVLCIFASTDERRGENPGTPALSIGFSVALGHLLGIHYTGCSMNPARSLAPAVVTGKFDDHWVFWIGPLVGAILGSLLYNYVLFPPAKSLSERLAVLKGLEP
notes: aquaporin-2 (AQP2), human, C-terminal truncation at P242; the construct used for the structure PDB 4NEF; His-tag removed by TEV protease before SEC; also called wild-type AQP2; hAQP2; source: Pichia pastoris X33, purified (IMAC, TEV cleavage, second IMAC, SEC); not shown: His8, N-terminal, cleaved
B3: human aquaporin-2 (AQP2) T125M, truncated after residue 242 (domain or fragment, UniProt P41181 1-242, looked up)
chain: B2 chain with T125M
notes: aquaporin-2 (AQP2), human, C-terminal truncation at P242, with the recessive NDI patient mutation T125M; Mutation identified in patients with autosomal recessive NDI; same construct limits as m1; source: Pichia pastoris X33, purified (IMAC, TEV cleavage, second IMAC, SEC); not shown: His8, N-terminal, cleaved

Columns and labels:
[1] = size-exclusion chromatography; settings: glycan lost; control: wild-type AQP2 (same construct)
[2] = target: the molecule itself; test: SEC; size-exclusion chromatography of the purified protein immediately prior to reconstitution into liposomes; peak integrals quantified in % of the total population to estimate the oligomeric states

| Protein | oligomerisation [1] | stoichiometry N [2] |
| --- | --- | --- |
| B1 | no change |  |
| B2 |  | 4 |
| B3 |  | 4 |
